Results as given in publication PMC4878091.

Columns and labels:
PFHR9 NC1 domains = test: SEC
[1] = biological target: recombinant collagen IV α112 protomer (r-Prot); test: SEC

Row | stoichiometry N (PFHR9 NC1 domains) | stoichiometry N [1] | Substance
1 | 6 | – | PFHR9 NC1 domains
2 | – | 2 | recombinant collagen IV α112 protomer (r-Prot) (complex)
